Results from patent publication US20210206804A1.

Key:
[1] = target: αvβ6 integrin on DX3puroβ6 cells (human) (UniProt P06756); experiment: internalization of the radiotracer, DX3puroβ6 cells (FIG. 27)
[2] = target: αvβ6 integrin on DX3puroβ6 cells (human) (UniProt P06756); experiment: cell binding of the radiotracer, DX3puroβ6 cells (FIG. 27)
[3] = target: αvβ6 integrin (purified, captured on the ELISA plate) (UniProt P06756); experiment: ELISA (format not detailed at this place); not bearing K(IPA)E
Chain of αvβ6 integrin (purified, captured on the ELISA plate) (P06756 31-992, chain 1 of 2): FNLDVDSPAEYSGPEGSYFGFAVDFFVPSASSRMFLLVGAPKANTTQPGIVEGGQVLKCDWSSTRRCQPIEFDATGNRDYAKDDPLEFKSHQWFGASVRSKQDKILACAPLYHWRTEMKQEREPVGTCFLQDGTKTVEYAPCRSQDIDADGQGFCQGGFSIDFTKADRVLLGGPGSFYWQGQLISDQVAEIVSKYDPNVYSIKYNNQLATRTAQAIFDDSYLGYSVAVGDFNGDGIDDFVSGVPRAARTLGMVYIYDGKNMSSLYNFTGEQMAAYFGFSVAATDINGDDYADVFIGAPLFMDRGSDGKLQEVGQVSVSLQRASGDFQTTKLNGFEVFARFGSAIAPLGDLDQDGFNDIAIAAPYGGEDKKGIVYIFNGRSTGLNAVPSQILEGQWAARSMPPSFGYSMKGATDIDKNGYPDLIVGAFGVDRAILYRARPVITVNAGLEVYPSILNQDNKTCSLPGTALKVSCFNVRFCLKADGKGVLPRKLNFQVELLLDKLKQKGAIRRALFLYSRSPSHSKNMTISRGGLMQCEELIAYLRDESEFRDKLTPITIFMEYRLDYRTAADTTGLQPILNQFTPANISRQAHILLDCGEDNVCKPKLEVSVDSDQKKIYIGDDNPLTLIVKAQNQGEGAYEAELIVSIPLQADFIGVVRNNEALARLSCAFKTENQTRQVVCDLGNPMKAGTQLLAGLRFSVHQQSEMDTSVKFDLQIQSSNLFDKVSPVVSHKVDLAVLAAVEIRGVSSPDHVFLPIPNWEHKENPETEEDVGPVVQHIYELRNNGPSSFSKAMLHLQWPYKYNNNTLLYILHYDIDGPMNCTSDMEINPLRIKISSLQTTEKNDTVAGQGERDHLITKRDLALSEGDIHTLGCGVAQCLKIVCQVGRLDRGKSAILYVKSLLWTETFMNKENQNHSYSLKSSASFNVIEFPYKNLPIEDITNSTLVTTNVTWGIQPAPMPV
Chain of αvβ6 integrin (purified, captured on the ELISA plate) (P18564 22-707, chain 2 of 2, further chain): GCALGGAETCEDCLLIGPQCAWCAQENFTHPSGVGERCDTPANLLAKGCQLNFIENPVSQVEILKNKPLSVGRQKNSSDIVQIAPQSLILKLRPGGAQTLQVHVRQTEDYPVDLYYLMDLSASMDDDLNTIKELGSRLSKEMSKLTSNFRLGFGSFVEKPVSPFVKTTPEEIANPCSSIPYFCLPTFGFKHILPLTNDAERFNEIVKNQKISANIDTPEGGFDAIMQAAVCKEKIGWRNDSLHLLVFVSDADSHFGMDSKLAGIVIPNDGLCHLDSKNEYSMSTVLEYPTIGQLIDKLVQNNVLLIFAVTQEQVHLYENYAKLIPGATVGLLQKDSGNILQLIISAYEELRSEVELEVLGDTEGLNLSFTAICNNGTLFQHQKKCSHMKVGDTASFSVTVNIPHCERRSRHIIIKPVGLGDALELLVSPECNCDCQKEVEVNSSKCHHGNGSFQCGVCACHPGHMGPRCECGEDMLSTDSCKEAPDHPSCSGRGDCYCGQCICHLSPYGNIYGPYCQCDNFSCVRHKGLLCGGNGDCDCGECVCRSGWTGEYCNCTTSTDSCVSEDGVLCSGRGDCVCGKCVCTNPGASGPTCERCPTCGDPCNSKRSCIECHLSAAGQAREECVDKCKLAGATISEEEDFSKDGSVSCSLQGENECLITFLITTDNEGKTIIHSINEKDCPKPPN

Chain of αvβ6 integrin on DX3puroβ6 cells (human) (P06756 31-1048 limits assumed, chain 1 of 2): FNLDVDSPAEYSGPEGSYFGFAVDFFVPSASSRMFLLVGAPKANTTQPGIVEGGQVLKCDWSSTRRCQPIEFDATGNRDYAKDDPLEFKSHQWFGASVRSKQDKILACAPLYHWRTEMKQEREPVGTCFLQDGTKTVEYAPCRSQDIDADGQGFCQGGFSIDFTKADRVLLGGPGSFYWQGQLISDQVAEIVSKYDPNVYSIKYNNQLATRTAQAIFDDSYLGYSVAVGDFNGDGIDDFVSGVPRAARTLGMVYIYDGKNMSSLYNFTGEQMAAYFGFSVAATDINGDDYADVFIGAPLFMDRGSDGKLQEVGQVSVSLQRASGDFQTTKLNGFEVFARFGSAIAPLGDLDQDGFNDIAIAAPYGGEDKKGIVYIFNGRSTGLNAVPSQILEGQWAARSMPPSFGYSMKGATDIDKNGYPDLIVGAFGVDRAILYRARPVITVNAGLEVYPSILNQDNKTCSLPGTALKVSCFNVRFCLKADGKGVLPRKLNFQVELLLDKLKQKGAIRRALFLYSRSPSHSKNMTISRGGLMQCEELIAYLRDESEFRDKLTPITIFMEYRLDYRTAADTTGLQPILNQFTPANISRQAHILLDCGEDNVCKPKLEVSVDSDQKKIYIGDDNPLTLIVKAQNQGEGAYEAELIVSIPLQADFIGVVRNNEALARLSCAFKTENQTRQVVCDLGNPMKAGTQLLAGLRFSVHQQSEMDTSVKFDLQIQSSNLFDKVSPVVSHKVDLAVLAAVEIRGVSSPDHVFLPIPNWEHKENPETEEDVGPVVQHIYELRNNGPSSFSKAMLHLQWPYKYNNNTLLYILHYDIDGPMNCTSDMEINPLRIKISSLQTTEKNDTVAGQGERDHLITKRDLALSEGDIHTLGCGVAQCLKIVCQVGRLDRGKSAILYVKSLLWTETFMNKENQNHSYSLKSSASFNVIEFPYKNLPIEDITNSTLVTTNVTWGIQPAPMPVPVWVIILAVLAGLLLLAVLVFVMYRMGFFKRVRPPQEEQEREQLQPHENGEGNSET
Chain of αvβ6 integrin on DX3puroβ6 cells (human) (P18564 22-788 limits assumed, chain 2 of 2, further chain): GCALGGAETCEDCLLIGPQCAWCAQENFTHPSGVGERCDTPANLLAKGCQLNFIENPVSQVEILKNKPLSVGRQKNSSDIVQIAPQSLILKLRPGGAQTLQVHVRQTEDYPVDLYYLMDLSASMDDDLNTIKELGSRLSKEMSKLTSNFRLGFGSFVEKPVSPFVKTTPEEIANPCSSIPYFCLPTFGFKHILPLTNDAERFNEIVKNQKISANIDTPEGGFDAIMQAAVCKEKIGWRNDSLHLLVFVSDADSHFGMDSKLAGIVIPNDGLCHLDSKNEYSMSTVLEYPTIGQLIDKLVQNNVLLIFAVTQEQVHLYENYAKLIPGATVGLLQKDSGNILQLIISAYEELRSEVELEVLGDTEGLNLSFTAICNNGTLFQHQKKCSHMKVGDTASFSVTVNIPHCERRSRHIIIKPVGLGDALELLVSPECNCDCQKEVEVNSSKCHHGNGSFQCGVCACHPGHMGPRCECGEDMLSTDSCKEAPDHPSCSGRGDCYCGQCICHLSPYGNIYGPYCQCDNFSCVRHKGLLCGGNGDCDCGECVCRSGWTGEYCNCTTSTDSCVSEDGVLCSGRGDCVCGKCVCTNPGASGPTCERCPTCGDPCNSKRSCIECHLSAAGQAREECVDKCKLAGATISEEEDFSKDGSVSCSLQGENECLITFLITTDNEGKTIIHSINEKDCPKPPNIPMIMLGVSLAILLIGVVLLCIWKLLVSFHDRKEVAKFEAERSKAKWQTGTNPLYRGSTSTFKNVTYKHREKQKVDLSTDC

Q: Which internalized (% of bound radioactivity) [1] does the source give for “PEGylated A20FMDV2 not bearing K(IPA)E (peptide)” here?
A: Its internalized (% of bound radioactivity) is 44%.

Q: And the bound (%) [2]?
A: Its bound (%) is 52%.

Q: What about the IC50 [3] of the same substance?
A: The IC50 was 2 nM.
